The results in this text go back to publication PMC8336959 (Science Advances, 2021).

Square brackets hold non-standard residues; d marks the D form. Ends that are not written are not given here. pY = N[C@@H](Cc1ccc(OP(=O)(O)O)cc1)C(=O)O; pS = N[C@@H](COP(=O)(O)O)C(=O)O

Sequences and labels used below:
B1: MRE11 peptide (peptide)
peptide: PWVNYQDGNLN
B2: Tyrosine-phosphorylated MRE11 peptide (peptide)
peptide: PWVN[pY]QDGNLN
B3: RPA70 N-terminal OB1 domain (RPA70N, residues 1 to 120), Atto488-labeled (domain or fragment)
chain: MVGQLSEGAIAAIMQKGDTNIKPILQVINIRPITTGNSPPRYRLLMSDGLNTLSSFMLATQLNPLVEEEQLSSNCVCQIHRFIVNTLKDGRRVVILMELEVLKSAEAVGVKIGNPVPYNE
modifications: Atto488 label
B4: Phosphorylated EGFR synthetic peptide (peptide)
peptide: FLPVPE[pY]INQSVPKR
B5: GRB2 OB1 peptide (peptide)
peptide: KYDFKATADDELSFKRG
B6: Dual-phosphorylated H2AX (pH2AX) peptide (peptide)
peptide: PSGGKKATQA[pS]QE[pY]

Common to all, as to assay: MST
For experiment [1], the target named is Atto488-labeled GRB2-SH2 domain (UniProt P62993 60-152, Atto488 label).
Atto488-labeled GRB2-SH2 domain, sequence (P62993 60-152): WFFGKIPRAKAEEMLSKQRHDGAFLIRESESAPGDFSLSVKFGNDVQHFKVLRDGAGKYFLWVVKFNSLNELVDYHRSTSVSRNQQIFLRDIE
Experiment [2] deals with GRB2, wild type, bacterially expressed and purified (UniProt P62993 1-217).
GRB2, wild type, bacterially expressed and purified, sequence (P62993 whole entry): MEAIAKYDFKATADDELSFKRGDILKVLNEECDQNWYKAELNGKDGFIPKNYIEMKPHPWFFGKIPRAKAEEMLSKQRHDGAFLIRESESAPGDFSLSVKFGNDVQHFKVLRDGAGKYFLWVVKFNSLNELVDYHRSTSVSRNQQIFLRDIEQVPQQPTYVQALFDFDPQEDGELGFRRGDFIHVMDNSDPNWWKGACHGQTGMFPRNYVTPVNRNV
The target of experiment [3] is B3.

In experiment [1], B1 yielded a Kd of 33 ± 15 µM.

In the case of B2, the binding result in experiment [2] is reported as “binds”.

Consider B3, for which the binding result in experiment [2] was “binds”.

The molecule B4 yielded a Kd in experiment [1] of 7.2 ± 2 µM.

B5: in experiment [3], the binding result is reported as “binds”.

In the case of B6, in experiment [2], the binding result was “binds”.

For orientation: Kd means the constant that tells how readily two partners part at equilibrium.
